The record followed here is PMC5648036.

The subject of this data set is SerRS-Avi-biotin (human cytosolic seryl-tRNA synthetase) (Homo sapiens). Put plainly: SPR.

A word on the Kd: it is the equilibrium constant for the complex coming apart. Lower therefore signals higher affinity. In the case of WT tRNASer, the Kd amounted to 3.3 nM.
